Measured values: patent publication US20120238493A1 (INDIANA UNIVERSITY RESEARCH AND TECHNOLOGY, published 2012)
Where two headings read alike, the source gives them in different places. Bridges are numbered along the chain shown (N, C = ends). Where no end group is shown, it is not given here. Side-chain parts run from the residue outwards. [ ]: non-standard residue; d: D form. The star is where a group is joined. Isobutyryl(2-imidazol-4-yl) = CC(C)(C(=O)*)c1c[nH]cn1; PEG40kDa = 40 kDa polyethylene glycol attached; Palmitoyl = CCCCCCCCCCCCCCCC(=O)*; Aib = CC(C)(N)C(=O)O

What was measured:
Test in all cases: cell-based or functional assay
glucagon receptor [1] = biological target: T1, glucagon receptor (UniProt P47871 26-477, limits assumed)
GLP-1 receptor [2] = biological target: T2, GLP-1 receptor (UniProt P43220 24-463, limits assumed)
GIP receptor [3] = biological target: T3, GIP receptor (UniProt P48546 22-466, limits assumed)
T3 sequence (looked up): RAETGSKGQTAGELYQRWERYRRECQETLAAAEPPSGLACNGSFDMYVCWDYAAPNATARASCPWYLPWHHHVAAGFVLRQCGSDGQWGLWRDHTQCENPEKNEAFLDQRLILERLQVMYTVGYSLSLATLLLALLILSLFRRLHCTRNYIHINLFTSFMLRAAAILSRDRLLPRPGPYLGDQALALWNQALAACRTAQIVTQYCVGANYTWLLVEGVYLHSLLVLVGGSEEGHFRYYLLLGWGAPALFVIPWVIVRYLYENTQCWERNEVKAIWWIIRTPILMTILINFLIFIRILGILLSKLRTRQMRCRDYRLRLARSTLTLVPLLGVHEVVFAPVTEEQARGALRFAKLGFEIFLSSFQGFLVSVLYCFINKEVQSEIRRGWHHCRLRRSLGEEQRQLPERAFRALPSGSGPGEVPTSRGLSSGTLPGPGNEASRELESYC

glucagon receptor [4] = biological target: T1, glucagon receptor; remark: listed apart in the source
GLP-1 receptor [5] = biological target: T2, GLP-1 receptor; remark: listed apart in the source
GIP receptor [6] = biological target: T3, GIP receptor; remark: listed apart in the source
glucagon receptor [7] = biological target: T1, glucagon receptor; remark: listed apart in the source
GLP-1 receptor [8] = biological target: T2, GLP-1 receptor; remark: listed apart in the source
GIP receptor [9] = biological target: T3, GIP receptor; remark: listed apart in the source

T1 sequence (P47871 26-477 limits assumed): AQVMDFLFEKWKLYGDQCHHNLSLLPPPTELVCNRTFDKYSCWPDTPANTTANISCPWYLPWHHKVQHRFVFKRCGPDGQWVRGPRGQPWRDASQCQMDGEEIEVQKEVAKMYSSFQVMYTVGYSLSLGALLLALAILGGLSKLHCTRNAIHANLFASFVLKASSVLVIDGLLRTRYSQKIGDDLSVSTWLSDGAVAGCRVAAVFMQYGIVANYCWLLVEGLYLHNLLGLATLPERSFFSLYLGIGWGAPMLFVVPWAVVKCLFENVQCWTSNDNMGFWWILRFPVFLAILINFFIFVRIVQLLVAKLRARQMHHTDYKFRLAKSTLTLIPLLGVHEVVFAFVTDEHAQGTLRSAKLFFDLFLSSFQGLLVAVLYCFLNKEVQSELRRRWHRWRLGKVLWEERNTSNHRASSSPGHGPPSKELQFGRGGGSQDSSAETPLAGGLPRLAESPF

Binder	EC50 (cAMP reporter) (glucagon receptor [1])	EC50 (cAMP reporter) (GLP-1 receptor [2])	EC50 (cAMP reporter) (GIP receptor [3])	EC50 (cAMP reporter) (glucagon receptor [4])	EC50 (cAMP reporter) (GLP-1 receptor [5])	EC50 (cAMP reporter) (GIP receptor [6])	also measured
H[Aib]QGTFTSDKSKYLD[Aib]RAAQDFVQWLMDGGPSSGAPPPS-NH2 (not fully specified (residue 10)) [Analog No. 49: Aib2, K10acyl, Aib16, A10, D28, G29 + CEX (SEQ ID NO: 33)]	5 pM	4 pM	248 pM	–	–	–	–
Y[Aib]QGTFTSDYSIYLDEQAAKEFVNWLLAGGPSSGAPPPSK-NH2 (not fully specified) [mt-227 (SEQ ID NO: 25)]	–	–	–	4240 pM	80 pM	1320 pM	–
Y[Aib]EGTFISDYSIAMDKIHQQDFVNWLLAQKGKKNWLKHNITQ-NH2 (not fully specified) [mt-217 (SEQ ID NO: 19)]	–	–	–	13900 pM	222 pM	9570 pM	relative activity (to native hormone) (glucagon receptor [4]): 0.82%; relative activity (to native hormone) (GLP-1 receptor [5]): 11.3%; relative activity (to native hormone) (GIP receptor [6]): 0.2%
Y[Aib]EGTFISDYSIAMDKIHQQDFVCWLLAQKGKKNWLKHNITQ-NH2 (not fully specified) [mt-220 (SEQ ID NO: 22)]	–	–	–	9670 pM	180 pM	10300 pM	relative activity (to native hormone) (glucagon receptor [4]): 1.18%; relative activity (to native hormone) (GLP-1 receptor [5]): 13.9%; relative activity (to native hormone) (GIP receptor [6]): 0.19%
YXEGTFISDYSIAMDKIHQQDFVNWLLAQKGKKNWLKHNITQ (not fully specified; AIB at position 2; C-terminal amide; Glu16-Lys20 lactam in some Table 3 peptides, absent in others (which ones is not stated)) [mt-218 (SEQ ID NO: 20)]	–	–	–	16300 pM	338 pM	14300 pM	relative activity (to native hormone) (glucagon receptor [4]): 0.7%; relative activity (to native hormone) (GLP-1 receptor [5]): 7.4%; relative activity (to native hormone) (GIP receptor [6]): 0.13%
H[Aib]QGTFTSDKSKYLD[Aib]RAAQDFVQWLKDGGPSSGAPPPS-NH2 (not fully specified (residue 10)) [Analog No. 54: Aib2, K10acyl, Aib16, A18, K27, D28, G29 + CEX (SEQ ID NO: 36)]	8 pM	4 pM	171 pM	–	–	–	–
H[Aib]QGTFTSDK(Palmitoyl)SKYLD[Aib]RAAQDFVQWLVKGGPSSGAPPPS-NH2 [Analog No. 53: Aib2, K10acyl, Aib16, A18, V27, K28, G29 + CEX (SEQ ID NO: 35)]	11 pM	5 pM	73 pM	–	–	–	–
Y[Aib]PGTFISDYSIAMDKIHQQDFVNWLLAQKGKKNWLKHNITQ-NH2 (not fully specified) [mt-219 (SEQ ID NO: 21)]	–	–	–	17600 pM	151 pM	6160 pM	relative activity (to native hormone) (glucagon receptor [4]): 0.65%; relative activity (to native hormone) (GLP-1 receptor [5]): 16.6%; relative activity (to native hormone) (GIP receptor [6]): 0.31%
HSQGTFTSDYSKYLDEIHQKDFVNWLLAGGPSSGAPPPS-NH2 (lactam 16-20; N-terminus assumed; SMILES CC[C@H](C)[C@@H]1NC(=O)[C@@H](NC(=O)[C@H](CC(=O)O)NC(=O)[C@H](CC(C)C)NC(=O)[C@H](Cc2ccc(O)cc2)NC(=O)[C@H](CCCCN)NC(=O)[C@H](CO)NC(=O)[C@H](Cc2ccc(O)cc2)NC(=O)[C@H](CC(=O)O)NC(=O)[C@H](CO)NC(=O)[C@@H](NC(=O)[C@H](Cc2ccccc2)NC(=O)[C@@H](NC(=O)CNC(=O)[C@H](CCC(N)=O)NC(=O)[C@H](CO)NC(=O)[C@@H](N)Cc2c[nH]cn2)[C@@H](C)O)[C@@H](C)O)CCC(=O)NCCCC[C@@H](C(=O)N[C@@H](CC(=O)O)C(=O)N[C@@H](Cc2ccccc2)C(=O)N[C@H](C(=O)N[C@@H](CC(N)=O)C(=O)N[C@@H](Cc2c[nH]c3ccccc23)C(=O)N[C@@H](CC(C)C)C(=O)N[C@@H](CC(C)C)C(=O)N[C@@H](C)C(=O)NCC(=O)NCC(=O)N2CCC[C@H]2C(=O)N[C@@H](CO)C(=O)N[C@@H](CO)C(=O)NCC(=O)N[C@@H](C)C(=O)N2CCC[C@H]2C(=O)N2CCC[C@H]2C(=O)N2CCC[C@H]2C(=O)N[C@@H](CO)C(N)=O)C(C)C)NC(=O)[C@H](CCC(N)=O)NC(=O)[C@H](Cc2c[nH]cn2)NC1=O) [mt-395 (SEQ ID NO: 15)]	–	–	–	–	–	–	EC50 (cAMP reporter) (glucagon receptor [7]): 3410 pM; relative activity (to native hormone) (glucagon receptor [7]): 0.87%; EC50 (cAMP reporter) (GLP-1 receptor [8]): 7.6 pM; relative activity (to native hormone) (GLP-1 receptor [8]): 322%; EC50 (cAMP reporter) (GIP receptor [9]): 2.5 pM; relative activity (to native hormone) (GIP receptor [9]): 537%
H[Aib]EGTFTSDK(Palmitoyl)SKYLDERRA[Aib]DFVQWLLDGGPSSGAPPPS-NH2 [Analog No. 65: Aib2, E3, K10acyl, E16, Aib20, L27, D28, G29 + CEX (SEQ ID NO: 41)]	221 pM	6 pM	13 pM	–	–	–	–
[Isobutyryl(2-imidazol-4-yl)][dS]QGTFTSDKSKYLDERAAQDFVQWLLDT-NH2 (not fully specified (residue 10)) [Analog No. 44: DMIA1, dSer2, K10acyl, E16, A18, L27, D28 (SEQ ID NO: 32)]	4 pM	3 pM	103 pM	–	–	–	–
Y[Aib]QGTFTSDYSIYLDEQAAKEFVNWLLAGGPSSGAPPPSK([Ala-Cys(PEG 40 kDa)-Ac])-NH2 (lactam 16-20) [mt-225 (SEQ ID NO: 23)]	–	–	–	2710 pM	98 pM	1900 pM	–
Y[Aib]PGTFISDYSIAMDKIHQQDFVC(PEG40kDa)WLLAQKGKKNWLKHNITQ-NH2 (not fully specified) [mt-228 (SEQ ID NO: 26)]	–	–	–	5360 pM	146 pM	2270 pM	–
H[Aib]QGTFTSDKSKYLDERAAQDFVQWLLDGRG-NH2 (not fully specified (residue 10)) [Analog No. 34: Aib2, K10acyl, E16, A18, L27, D28, GRG29-31 (SEQ ID NO: 29)]	7 pM	3 pM	64 pM	–	–	–	–
H[dS]QGTFTSDKSKYLDERRA[Aib]EFVQWLLDT-NH2 (not fully specified (residue 10)) [Analog No. 36: dSer2, K10acyl, E16, Aib20, E21, L27, D28 (SEQ ID NO: 30)]	8 pM	3.1 pM	250 pM	–	–	–	–
H[Aib]EGTFTSDKSKYLDERRA[Aib]EFVQWLLDT-NH2 (not fully specified (residue 10)) [Analog No. 64: Aib2, E3, K10acyl, E16, Aib20, E21, L27, D28 (SEQ ID NO: 40)]	42 pM	6 pM	24 pM	–	–	–	–
Y[Aib]PGTFISDYSIAMDKIHQQDFVCWLLAQKGKKNWLKHNITQ-NH2 (not fully specified) [mt-226 (SEQ ID NO: 24)]	–	–	–	3460 pM	97 pM	1470 pM	–
H[dS]QGTFTSDKSKYLDERAAQDFVQWLLDGGPSSGAPPPS-NH2 (not fully specified (residue 10)) [Analog No. 29: dSer2, K10acyl, E16, A18, L27, D28, G29 + CEX (SEQ ID NO: 27)]	3 pM	2 pM	85 pM	–	–	–	–
